Measured values: paper PMC3081289 (2011)

Target: T1, Vascular Endothelial Growth Factor (VEGF), receptor binding domain, VEGF_(8–109) (human)
T1 chain: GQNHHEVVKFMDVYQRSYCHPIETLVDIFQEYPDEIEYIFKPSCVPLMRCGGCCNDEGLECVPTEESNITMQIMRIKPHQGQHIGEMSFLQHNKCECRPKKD
Assay: SPR

koff: 0.0014 s⁻¹
B1: bH1-44 Fab (affinity-improved variant of bH1) (Fab, V domains shown)
VH: EVQLVESGGGLVQPGGSLRLSCAASGFNISGTYIHWVRQAPGKGLEWVARIYPSEGYTRYADSVKGRFTISADTSKNTAYLQMNSLRAEDTAVYYCSRWVGVGFYAMDYWGQGTLVTVSS
VL: DIQMTQSPSSLSASVGDRVTITCRASQNIAKTISGYVAWYQQKPGKAPKLLIYWGSFLYSGVPSRFSGSGSGTDFTLTISSLQPEDFATYYCQQHYSSPPTFGQGTKVEIK
